# B1: murine anti-human IL-17A monoclonal antibody No.120 (antibody, V domains shown)
# VH: EVKLVESGGGLVRPGGTLKLSCAASGFTFSSFDMSWGRQTPEKRLEWVAFMSSGGSTYYPDSVKGRFTISRDNVRNILYLQMISLRSEDTAMYYCARGERYGSYWGQGTLVTVSA
# VL: DIQMTQSSSYLSVSLGGRVTITCKASDHINNWLAWYQQKPGNAPRLLISGATSLETGVPSRFSGSGSGKDYTLSITSLQTEDVATYYCQQYWSTPFTFGSGTKLEIK
# notes: also called No.120 antibody; murine 120 antibody
# B2: humanized anti-human IL-17A monoclonal antibody 120-Hu (antibody, human IgG1, kappa, V domains shown)
# VH: EVQLVESGGGLVQPGGSLRLSCAASGFTFSSFDMSWGRQAPGKRLEWVAFMSSGGSTYYPDSVKGRFTISRDNSKNTLYLQMNSLRAEDTAVYYCARGERYGSYWGQGTLVTVSS
# VL: DIQMTQSPSSLSASVGDRVTITCKASDHINNWLAWYQQKPGKAPKLLISGATSLETGVPSRFSGSGSGTDYTLTISSLQPEDFATYYCQQYWSTPFTFGSGTKLEIKR
# notes: Human IgG1; also called 120-Humanization; humanized 120 antibody
# B3: Ixekizumab (antibody, V domains shown)
# VH: QVQLVQSGAEVKKPGSSVKVSCKASGYSFTDYHIHWVRQAPGQGLEWMGVINPMYGTTDYNQRFKGRVTITADESTSTAYMELSSLRSEDTAVYYCARYDYFTGTGVYWGQGTLVTVSS
# VL: DIVMTQTPLSLSVTPGQPASISCRSSRSLVHSRGNTYLHWYLQKPGQSPQLLIYKVSNRFIGVPDRFSGSGSGTDFTLKISRVEAEDVGVYYCSQSTHLPFTFGQGTKLEIKR
# How the values were obtained:
# [1] = target: T1, recombinant human IL-17A (purchased from R&D Systems) (human, UniProt Q16552 24-155); assay: cell-based or functional assay
# T1 sequence (Q16552 24-155 limits assumed): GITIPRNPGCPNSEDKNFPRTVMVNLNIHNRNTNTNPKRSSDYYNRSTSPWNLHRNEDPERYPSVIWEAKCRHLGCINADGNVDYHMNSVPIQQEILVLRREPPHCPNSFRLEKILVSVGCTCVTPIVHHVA
# [2] = target: T2, hIL-17A (analyte of the Biacore assay) (human, UniProt Q16552 24-155); assay: SPR, Biacore T200: antibody captured on Protein A/G, hIL-17A as analyte
# T2 construct: The Biacore method says only 'hIL-17A'; also called human IL-17A
# T2 sequence (Q16552 24-155 limits assumed): as above
# Method: (§1) The specific experimental method was as follows: Amine Coupling Kit (GE healthcare) was used to activate CM5 sensor chips (GE healthcare) and recombinant Protein A/G (Thermo Pierce) was immobilized on the chip with an amount of 2000 RU. FC3 (Flow cell 3) was a reference channel, and FC4 (Flow cell 4) was a sample channel. […] The cycling conditions were as follows: the analyte was injected at 50 μl/min for 4 min in all channels of the FCs, the dissociation time was 20 min, and 6M guanidine hydrochloride (National Pharmaceutical Group Chemical Reagent Co., Ltd.) was injected at a rate of 10 μl/min for 30 s to surface regeneration. Then, difference between the signals of the captured antibodies and antibody-free controls were adopted to calculate binding kinetics and affinities using Biacore T200 Evaluation Software Ver 1.0.
# [3] = target: T1, recombinant human IL-17A (purchased …); assay: cell-based or functional assay; remark: listed apart in the source
# [4] = target: T2, hIL-17A (analyte of the Biacore assay); assay: SPR, Biacore (as in Example 6): antibody captured, hIL-17A as analyte
# Method: as §1
binder,measurement,setting,value
B1,"IC50, inhibition of IL-17A-induced IL-6 secretion from Hela cells",[1],0.0305 nM
same,Kd,[2],0.000299 nM
same,koff,[2],6.08e-08 s⁻¹
same,kon,[2],204000 M⁻¹ s⁻¹
B2,"IC50(pM), inhibition of IL-17A-induced IL-6 secretion from Hela cells, Experiment 1",[3],14.7 pM
same,"IC50(pM), inhibition of IL-17A-induced IL-6 secretion from Hela cells, Experiment 2",[3],22 pM
same,"IC50(pM), inhibition of IL-17A-induced IL-6 secretion from Hela cells, Experiment 3",[3],44.6 pM
same,Kd,[4],< 0.001 nM
same,koff,[4],< 1e-05 s⁻¹
same,kon,[4],445000 M⁻¹ s⁻¹
B3,"IC50, inhibition of IL-17A-induced IL-6 secretion from Hela cells",[1],0.0606 nM
same,"IC50(pM), inhibition of IL-17A-induced IL-6 secretion from Hela cells, Experiment 1",[3],21.9 pM
same,"IC50(pM), inhibition of IL-17A-induced IL-6 secretion from Hela cells, Experiment 2",[3],27.4 pM
same,"IC50(pM), inhibition of IL-17A-induced IL-6 secretion from Hela cells, Experiment 3",[3],50.7 pM
same,Kd,[4],0.0411 nM
same,koff,[4],9.45e-05 s⁻¹
same,kon,[4],2.3e+06 M⁻¹ s⁻¹
same,Kd,[2],0.0637 nM
same,koff,[2],3.28e-05 s⁻¹
same,kon,[2],515000 M⁻¹ s⁻¹

# From US20190161544A1 (SUNSHINE GUOJIAN PHARMACEUTICAL SHANGHAI, published 2019)
